Assay results reported in patent US20220119490A1 (Genentech, published 2022).

How the values were obtained:
PTPRT expressed on cells = molecular target: T1, PTPRT expressed on cells (human, UniProt O14522 26-1441); experiment: cell surface interaction assay: query ECD tetramerised with fluorescent streptavidin on transfected cells, immunofluorescence
T1 construct: whole, on cells
T1 sequence (looked up): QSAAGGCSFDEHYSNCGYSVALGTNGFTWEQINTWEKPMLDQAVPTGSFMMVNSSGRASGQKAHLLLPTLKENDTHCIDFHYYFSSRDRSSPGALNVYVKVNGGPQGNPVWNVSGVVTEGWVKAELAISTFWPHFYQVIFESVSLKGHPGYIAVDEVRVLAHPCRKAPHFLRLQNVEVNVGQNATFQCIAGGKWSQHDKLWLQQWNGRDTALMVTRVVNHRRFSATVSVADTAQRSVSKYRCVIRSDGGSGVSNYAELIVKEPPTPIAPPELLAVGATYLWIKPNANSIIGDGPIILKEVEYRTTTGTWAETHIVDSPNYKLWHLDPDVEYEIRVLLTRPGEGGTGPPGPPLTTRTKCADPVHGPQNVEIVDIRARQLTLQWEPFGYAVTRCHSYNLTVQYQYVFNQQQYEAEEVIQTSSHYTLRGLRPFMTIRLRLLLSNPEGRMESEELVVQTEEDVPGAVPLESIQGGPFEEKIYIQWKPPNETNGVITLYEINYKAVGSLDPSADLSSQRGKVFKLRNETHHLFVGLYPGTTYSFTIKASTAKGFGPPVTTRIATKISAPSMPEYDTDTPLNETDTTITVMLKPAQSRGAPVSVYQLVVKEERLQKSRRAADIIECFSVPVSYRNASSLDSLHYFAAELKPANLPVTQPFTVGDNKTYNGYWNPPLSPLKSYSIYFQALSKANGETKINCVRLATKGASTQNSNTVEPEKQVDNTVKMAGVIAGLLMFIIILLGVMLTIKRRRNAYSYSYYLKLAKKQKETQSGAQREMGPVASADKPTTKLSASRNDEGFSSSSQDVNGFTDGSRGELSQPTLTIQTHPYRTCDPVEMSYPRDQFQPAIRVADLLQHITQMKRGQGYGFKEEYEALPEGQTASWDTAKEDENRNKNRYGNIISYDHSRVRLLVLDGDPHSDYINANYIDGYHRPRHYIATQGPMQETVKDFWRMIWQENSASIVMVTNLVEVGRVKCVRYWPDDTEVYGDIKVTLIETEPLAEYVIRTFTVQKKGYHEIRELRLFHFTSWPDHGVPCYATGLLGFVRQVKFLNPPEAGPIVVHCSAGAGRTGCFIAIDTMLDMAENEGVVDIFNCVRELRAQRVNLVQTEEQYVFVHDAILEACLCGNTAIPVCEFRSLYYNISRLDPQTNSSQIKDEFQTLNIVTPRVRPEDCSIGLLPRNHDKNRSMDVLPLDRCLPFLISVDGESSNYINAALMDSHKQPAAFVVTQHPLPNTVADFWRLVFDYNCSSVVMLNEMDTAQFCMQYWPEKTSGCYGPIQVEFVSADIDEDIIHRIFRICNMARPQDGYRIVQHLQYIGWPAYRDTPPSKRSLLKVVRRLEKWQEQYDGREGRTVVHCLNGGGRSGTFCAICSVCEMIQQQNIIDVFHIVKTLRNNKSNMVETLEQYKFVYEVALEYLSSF
Excerpt: (§1) FIG. 3H is a schematic showing the design of the cell surface interaction assay.
(§2) Experiments shown are representative of two independent assays. […] Scale bar=50 μm.

[1] = molecular target: T2, PTPRZ1 expressed on cells (human, UniProt P23471 25-2315); experiment: as above
T2 construct: whole, on cells
T2 sequence (P23471 25-2315): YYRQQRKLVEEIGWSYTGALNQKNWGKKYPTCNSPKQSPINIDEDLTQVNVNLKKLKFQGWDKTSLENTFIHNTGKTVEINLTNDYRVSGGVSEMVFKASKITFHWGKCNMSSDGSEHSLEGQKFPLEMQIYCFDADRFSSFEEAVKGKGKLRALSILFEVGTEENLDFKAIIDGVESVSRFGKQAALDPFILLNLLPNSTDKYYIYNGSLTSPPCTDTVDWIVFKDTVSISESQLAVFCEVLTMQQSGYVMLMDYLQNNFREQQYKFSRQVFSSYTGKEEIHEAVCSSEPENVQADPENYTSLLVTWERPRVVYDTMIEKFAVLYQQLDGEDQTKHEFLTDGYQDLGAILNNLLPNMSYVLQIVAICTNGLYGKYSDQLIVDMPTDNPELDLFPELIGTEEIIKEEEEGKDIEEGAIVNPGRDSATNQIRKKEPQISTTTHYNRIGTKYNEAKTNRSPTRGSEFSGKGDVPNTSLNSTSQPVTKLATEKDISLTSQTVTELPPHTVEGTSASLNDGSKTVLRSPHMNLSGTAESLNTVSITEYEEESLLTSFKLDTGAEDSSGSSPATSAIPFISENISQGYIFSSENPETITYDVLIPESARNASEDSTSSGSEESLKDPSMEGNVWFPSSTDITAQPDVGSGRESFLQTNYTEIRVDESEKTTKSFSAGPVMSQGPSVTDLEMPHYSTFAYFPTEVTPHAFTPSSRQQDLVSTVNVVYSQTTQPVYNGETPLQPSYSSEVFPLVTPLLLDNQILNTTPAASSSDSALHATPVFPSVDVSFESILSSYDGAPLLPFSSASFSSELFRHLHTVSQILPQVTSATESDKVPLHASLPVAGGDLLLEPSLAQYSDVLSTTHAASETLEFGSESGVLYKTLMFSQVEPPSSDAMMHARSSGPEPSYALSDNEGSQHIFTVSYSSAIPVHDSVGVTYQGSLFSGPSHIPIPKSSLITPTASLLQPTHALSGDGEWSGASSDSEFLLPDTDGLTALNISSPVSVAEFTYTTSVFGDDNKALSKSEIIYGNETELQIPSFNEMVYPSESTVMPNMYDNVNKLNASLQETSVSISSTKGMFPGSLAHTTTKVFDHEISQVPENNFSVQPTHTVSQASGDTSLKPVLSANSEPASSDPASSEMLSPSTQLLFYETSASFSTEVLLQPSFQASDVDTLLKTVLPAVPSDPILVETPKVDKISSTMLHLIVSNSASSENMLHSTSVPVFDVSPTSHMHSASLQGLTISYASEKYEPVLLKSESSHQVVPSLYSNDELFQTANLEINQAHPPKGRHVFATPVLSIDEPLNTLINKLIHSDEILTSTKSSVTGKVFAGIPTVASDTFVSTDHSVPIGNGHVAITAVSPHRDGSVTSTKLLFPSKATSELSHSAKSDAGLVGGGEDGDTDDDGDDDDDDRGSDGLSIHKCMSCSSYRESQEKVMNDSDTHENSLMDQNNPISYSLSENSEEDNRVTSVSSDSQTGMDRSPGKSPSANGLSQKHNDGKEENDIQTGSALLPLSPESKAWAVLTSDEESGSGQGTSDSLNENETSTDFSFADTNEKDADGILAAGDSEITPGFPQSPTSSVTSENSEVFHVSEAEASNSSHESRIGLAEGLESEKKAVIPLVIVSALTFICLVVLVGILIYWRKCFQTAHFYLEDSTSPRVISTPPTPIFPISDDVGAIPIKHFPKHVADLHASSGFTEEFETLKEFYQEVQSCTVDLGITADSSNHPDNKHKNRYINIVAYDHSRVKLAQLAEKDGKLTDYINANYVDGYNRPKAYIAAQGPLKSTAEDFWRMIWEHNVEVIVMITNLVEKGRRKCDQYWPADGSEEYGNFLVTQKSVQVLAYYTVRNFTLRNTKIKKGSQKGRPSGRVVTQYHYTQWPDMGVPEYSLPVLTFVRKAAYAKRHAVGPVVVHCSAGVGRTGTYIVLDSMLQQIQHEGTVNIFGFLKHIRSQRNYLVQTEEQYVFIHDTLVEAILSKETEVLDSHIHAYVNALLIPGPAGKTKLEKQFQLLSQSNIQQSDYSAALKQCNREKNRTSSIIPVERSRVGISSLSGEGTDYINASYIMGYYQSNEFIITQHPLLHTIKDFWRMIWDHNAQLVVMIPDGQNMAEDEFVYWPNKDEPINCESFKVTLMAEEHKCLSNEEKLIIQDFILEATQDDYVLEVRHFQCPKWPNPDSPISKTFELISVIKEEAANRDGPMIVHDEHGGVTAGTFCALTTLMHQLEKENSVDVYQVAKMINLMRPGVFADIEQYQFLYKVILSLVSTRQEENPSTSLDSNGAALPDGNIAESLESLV
Excerpt: as §1, §2

PTPRO expressed on cells = molecular target: T3, PTPRO expressed on cells (human, UniProt Q16827 30-1216); experiment: as above
T3 construct: whole, on cells
T3 sequence (looked up): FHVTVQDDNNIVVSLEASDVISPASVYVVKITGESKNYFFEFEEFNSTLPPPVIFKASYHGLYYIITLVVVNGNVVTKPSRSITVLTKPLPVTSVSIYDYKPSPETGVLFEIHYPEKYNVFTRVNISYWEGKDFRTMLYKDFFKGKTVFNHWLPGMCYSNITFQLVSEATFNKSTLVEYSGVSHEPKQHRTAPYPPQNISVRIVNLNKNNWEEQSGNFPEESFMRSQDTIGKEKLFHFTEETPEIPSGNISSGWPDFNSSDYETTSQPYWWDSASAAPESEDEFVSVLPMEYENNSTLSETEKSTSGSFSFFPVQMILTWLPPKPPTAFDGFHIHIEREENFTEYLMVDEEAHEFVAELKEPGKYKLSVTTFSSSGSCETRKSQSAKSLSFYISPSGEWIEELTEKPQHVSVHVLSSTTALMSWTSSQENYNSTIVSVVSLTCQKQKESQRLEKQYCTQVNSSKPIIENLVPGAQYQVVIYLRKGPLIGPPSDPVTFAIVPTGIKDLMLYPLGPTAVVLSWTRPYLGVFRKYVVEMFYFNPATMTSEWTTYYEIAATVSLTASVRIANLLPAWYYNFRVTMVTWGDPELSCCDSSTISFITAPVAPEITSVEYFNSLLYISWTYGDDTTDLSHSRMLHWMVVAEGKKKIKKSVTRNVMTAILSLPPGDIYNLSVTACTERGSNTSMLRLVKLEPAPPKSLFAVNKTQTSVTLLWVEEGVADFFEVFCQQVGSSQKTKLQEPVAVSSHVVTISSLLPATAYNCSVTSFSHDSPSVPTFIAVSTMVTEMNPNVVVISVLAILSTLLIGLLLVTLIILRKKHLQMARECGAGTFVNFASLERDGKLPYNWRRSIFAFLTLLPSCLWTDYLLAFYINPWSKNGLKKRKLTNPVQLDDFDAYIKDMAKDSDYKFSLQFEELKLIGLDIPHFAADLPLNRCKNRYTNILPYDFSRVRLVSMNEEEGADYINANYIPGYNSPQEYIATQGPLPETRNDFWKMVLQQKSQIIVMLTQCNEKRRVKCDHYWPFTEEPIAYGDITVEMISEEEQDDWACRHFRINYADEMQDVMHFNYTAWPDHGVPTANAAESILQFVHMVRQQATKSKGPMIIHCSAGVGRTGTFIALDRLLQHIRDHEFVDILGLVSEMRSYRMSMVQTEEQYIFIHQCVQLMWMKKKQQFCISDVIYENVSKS
Excerpt: as §1, §2

PTPRS expressed on cells = molecular target: T4, PTPRS expressed on cells (human, UniProt Q13332 30-1948); experiment: cell surface interaction assay: streptavidin-tetramerized biotinylated ECD on transfected cells, immunofluorescence
T4 construct: whole, on cells; also called receptor-type tyrosine-protein phosphatase S
T4 sequence (Q13332 30-1948): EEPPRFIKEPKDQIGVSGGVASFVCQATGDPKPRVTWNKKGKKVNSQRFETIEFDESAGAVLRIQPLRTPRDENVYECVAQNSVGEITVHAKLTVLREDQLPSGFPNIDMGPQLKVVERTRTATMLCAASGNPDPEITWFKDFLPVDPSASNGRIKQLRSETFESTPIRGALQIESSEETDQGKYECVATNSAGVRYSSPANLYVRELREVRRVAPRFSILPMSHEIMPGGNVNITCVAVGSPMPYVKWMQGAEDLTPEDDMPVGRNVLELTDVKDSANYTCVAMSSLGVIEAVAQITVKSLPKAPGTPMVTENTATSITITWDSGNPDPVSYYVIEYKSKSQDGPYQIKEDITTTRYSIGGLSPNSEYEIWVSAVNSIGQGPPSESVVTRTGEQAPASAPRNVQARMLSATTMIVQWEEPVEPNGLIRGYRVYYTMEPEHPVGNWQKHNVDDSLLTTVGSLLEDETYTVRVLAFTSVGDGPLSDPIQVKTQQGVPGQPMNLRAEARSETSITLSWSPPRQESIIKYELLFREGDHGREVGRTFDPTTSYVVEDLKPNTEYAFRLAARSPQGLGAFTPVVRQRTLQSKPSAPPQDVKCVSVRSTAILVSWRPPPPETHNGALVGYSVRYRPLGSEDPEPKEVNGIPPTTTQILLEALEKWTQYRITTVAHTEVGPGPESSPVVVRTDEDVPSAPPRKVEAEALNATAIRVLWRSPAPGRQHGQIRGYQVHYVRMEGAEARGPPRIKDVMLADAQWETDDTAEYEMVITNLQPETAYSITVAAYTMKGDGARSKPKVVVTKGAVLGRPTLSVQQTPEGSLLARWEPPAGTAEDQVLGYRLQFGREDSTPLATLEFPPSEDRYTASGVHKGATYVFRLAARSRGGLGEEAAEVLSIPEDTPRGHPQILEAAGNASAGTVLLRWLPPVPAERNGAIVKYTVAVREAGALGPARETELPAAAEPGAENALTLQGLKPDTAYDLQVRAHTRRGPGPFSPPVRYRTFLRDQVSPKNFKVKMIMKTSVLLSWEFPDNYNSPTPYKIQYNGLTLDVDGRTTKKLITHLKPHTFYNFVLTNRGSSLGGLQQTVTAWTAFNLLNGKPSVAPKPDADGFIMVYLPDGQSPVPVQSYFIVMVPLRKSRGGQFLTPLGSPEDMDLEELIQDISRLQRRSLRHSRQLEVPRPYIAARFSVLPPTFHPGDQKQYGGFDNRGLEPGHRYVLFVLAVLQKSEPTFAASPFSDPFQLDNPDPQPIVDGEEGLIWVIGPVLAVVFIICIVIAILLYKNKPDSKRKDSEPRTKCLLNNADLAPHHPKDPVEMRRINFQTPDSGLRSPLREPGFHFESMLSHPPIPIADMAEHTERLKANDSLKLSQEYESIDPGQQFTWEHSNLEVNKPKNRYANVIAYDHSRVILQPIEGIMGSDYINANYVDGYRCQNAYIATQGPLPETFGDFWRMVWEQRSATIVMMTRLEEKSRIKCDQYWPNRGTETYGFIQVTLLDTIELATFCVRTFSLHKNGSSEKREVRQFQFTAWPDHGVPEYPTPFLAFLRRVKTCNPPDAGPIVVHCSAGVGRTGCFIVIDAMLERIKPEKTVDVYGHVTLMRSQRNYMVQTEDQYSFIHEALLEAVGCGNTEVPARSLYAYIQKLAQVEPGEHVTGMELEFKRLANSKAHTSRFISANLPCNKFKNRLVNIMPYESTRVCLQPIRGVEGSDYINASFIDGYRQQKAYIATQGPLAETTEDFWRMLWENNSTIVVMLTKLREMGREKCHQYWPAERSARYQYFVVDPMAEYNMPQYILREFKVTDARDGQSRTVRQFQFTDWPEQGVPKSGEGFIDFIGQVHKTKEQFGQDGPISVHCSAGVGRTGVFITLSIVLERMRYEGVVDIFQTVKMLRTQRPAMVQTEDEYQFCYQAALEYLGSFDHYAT

PTPRD expressed on cells = molecular target: T5, PTPRD expressed on cells (human, UniProt P23468 21-1912); experiment: as above
T5 construct: whole, on cells; also called receptor-type tyrosine-protein phosphatase delta

- binding result (PTPRT expressed on cells): no binding
- binding result [1]: no binding
- binding result (PTPRO expressed on cells): no binding
- binding result (PTPRS expressed on cells): binds
- binding result (PTPRD expressed on cells): binds
B1: LRFN5 extracellular domain (receptor, human, UniProt Q96NI6 18-529, looked up)
chain: QICPKRCVCQILSPNLATLCAKKGLLFVPPNIDRRTVELRLADNFVTNIKRKDFANMTSLVDLTLSRNTISFITPHAFADLRNLRALHLNSNRLTKITNDMFSGLSNLHHLILNNNQLTLISSTAFDDVFALEELDLSYNNLETIPWDAVEKMVSLHTLSLDHNMIDNIPKGTFSHLHKMTRLDVTSNKLQKLPPDPLFQRAQVLATSGIISPSTFALSFGGNPLHCNCELLWLRRLSREDDLETCASPPLLTGRYFWSIPEEEFLCEPPLITRHTHEMRVLEGQRATLRCKARGDPEPAIHWISPEGKLISNATRSLVYDNGTLDILITTVKDTGAFTCIASNPAGEATQIVDLHIIKLPHLLNSTNHIHEPDPGSSDISTSTKSGSNTSSSNGDTKLSQDKIVVAEATSSTALLKFNFQRNIPGIRMFQIQYNGTYDDTLVYRMIPPTSKTFLVNNLAAGTMYDLCVLAIYDDGITSLTATRVVGCIQFTTEQDYVRCHFMQSQFLGGTM
notes: extracellular domain; Streptavidin tetramer in cell assay; ECD-Fc prey in the variant screen; also called LFRN5
